Data on three molecules can be found in article PMC4234381, “Evolution of Acyl-Substrate Recognition by a Family of Acyl-Homoserine Lactone Synthases” (PLoS ONE, 2014).

For one series, the target named is Sfp (Bacillus subtilis, UniProt P39135). Nature of the series: enzymatic transfer of octyl-phosphopantetheine to apo-ACP, mass spectrum of product. The class given is biochemical. The settings on record: co-substrate E. coli apo-AcpP; preparative synthesis, 20:1 acyl-CoA to ACP.
Another series deals with BjaI (Bradyrhizobium diazoefficiens, UniProt Q89VI2). Kind of series: DCPIP microplate assay.
Substrate in series [1]: CC(C)CC(=O)SCCNC(=O)CCNC(=O)[C@H](O)C(C)(C)COP(=O)(O)OP(=O)(O)OC[C@H]1O[C@@H](n2cnc3c(N)ncnc32)[C@H](O)[C@@H]1OP(=O)(O)O
Nature of the series: purified protein. To be noted: 500 µM SAM, 1 µM BjaI, HEPES, final pH 7.3.

Substrate in series [2]: C[S+](CC[C@H](N)C(=O)O)C[C@H]1O[C@@H](n2cnc3c(N)ncnc32)[C@H](O)[C@@H]1O
Nature of the series: purified protein. To be noted: 250 µM isovaleryl-CoA, HEPES, final pH 7.3.

Sequence of Sfp (P39135 whole entry): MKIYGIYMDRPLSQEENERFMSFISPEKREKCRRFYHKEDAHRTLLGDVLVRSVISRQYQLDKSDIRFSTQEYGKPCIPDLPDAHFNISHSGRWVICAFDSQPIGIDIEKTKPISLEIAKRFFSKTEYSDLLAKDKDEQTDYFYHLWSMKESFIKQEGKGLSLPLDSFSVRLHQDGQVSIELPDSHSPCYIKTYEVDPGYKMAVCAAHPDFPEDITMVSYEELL

For `CCCCCCCCSCCNC(=O)CCNC(=O)[C@H](O)C(C)(C)COP(=O)(O)OP(=O)(O)OC[C@H]1O[C@@H](n2cnc3c(N)ncnc32)[C@H](O)[C@@H]1OP(=O)(O)O` [octyl-CoA sulfide], the “enzymatic transfer of octyl-phosphopantetheine to apo-ACP, mass spectrum of prod” value at Sfp is “enzymatic transfer of the alkyl-PPant to apo-ACP using Bacillus subtilis Sfp PPant transferase”.

What is called Ki is a measure of affinity in units of concentration, obtained from inhibition or displacement. A higher Ki goes with a looser hold on the target. At BjaI, `CC(C)CCSCCNC(=O)CCNC(=O)[C@H](O)C(C)(C)COP(=O)(O)OP(=O)(O)OC[C@H]1O[C@@H](n2cnc3c(N)ncnc32)[C@H](O)[C@@H]1OP(=O)(O)O` [isopentyl-CoA] registered a Ki of 21 ± 1 µM.

B1: BjaI (Bradyrhizobium diazoefficiens USDA 110) (protein)
chain: MIHAISAVNRHLYEDVLEQHFRLRHDIFVEERHWETLRRPDGREVDSYDDEDTVYLLALEGRRVVGGHRLYPTTKPSMMSEVFPHLAAVRGCPSDPLIWEWSRYFVVRDRRDGALNLQLMAAVQEFCLDQGIAQVSAIMETWWLPRFHEAGFVVTPLGLPALVENAWTMAATVDIRRQTLDVLHDRIGMPSIVQQDGPRLDAVARANLCGLAAAQRKSA
As a reminder, the Km is the substrate concentration at which the rate is half of its maximum. Usually kcat stands for the maximal rate divided by the concentration of active sites. A word on the kcat/Km: it is the second-order rate constant that governs catalysis at low substrate concentration. Consider B1, for which, in “purified protein [1]”, the Km came to 7.0 ± 0.5 µM, the kcat turned out to be 0.021 ± 0.03 s⁻¹ and the kcat/Km was found to be 3000 M⁻¹ s⁻¹. Further, the Km in the series “purified protein [2]” is 39 ± 4 µM.
